PMC12072009, “Catalytic Efficiency Improvement in Cellobiohydrolase I by Cross-Species Domain Exchange Engineering” (International Journal of Molecular Sciences, 2025)

How the values were obtained:
Conditions in all cases: 50 mM citric acid sodium citrate buffer, pH 4.8, 50 °C
[1] = tested on: T1, CT-CBH; assay: fluorescence of released methylumbelliferone (ex […], em […] nm), Michaelis-Menten nonlinear fit; format: biochemical, Thermochaetoides thermophila; Trichoderma reesei
T1 construct: gene cbh1; single-chain fusion: C. thermophilum CBHI (GenBank AM711862.1) with its CBM replaced by that of T. reesei CBHI; secreted from T. reesei Tu-6 delta-ku70

[2] = tested on: T2, TC-CBH; assay: as above; format: biochemical, Trichoderma reesei; Thermochaetoides thermophila
T2 construct: gene cbh1; single-chain fusion: T. reesei CBHI with its CBM replaced by that of C. thermophilum CBHI (GenBank AM711862.1); secreted from T. reesei Tu-6 delta-ku70

[3] = substrate: Cc1cc(=O)oc2cc(O[C@@H]3O[C@H](CO)[C@@H](O[C@@H]4O[C@H](CO)[C@@H](O)[C@H](O)[C@H]4O)[C@H](O)[C@H]3O)ccc12; assay: purified protein; format: biochemical, Trichoderma reesei
[4] = substrate: Cc1cc(=O)oc2cc(O[C@@H]3O[C@H](CO)[C@@H](O[C@@H]4O[C@H](CO)[C@@H](O)[C@H](O)[C@H]4O)[C@H](O)[C@H]3O)ccc12; assay: purified protein; format: biochemical, Thermochaetoides thermophila

`Cc1cc(=O)oc2cc(O[C@@H]3O[C@H](CO)[C@@H](O[C@@H]4O[C@H](CO)[C@@H](O)[C@H](O)[C@H]4O)[C@H](O)[C@H]3O)ccc12` [MUC] showed a Km [1] of 700 µM and a Km [2] of 1200 µM.

B1: T-CBH (Trichoderma reesei CBHI) (Trichoderma reesei QM6a) (protein)
chain: QSACTLQSETHPPLTWQKCSSGGTCTQQTGSVVIDANWRWTHATNSSTNCYDGNTWSSTLCPDNETCAKNCCLDGAAYASTYGVTTSGNSLSIGFVTQSAQKNVGARLYLMASDTTYQEFTLLGNEFSFDVDVSQLPCGLNGALYFVSMDADGGVSKYPTNTAGAKYGTGYCDSQCPRDLKFINGQANVEGWEPSSNNANTGIGGHGSCCSEMDIWEANSISEALTPHPCTTVGQEICEGDGCGGTYSDNRYGGTCDPDGCDWNPYRLGNTSFYGPGSSFTLDTTKKLTVVTQFETSGAINRYYVQNGVTFQQPNAELGSYSGNELNDDYCTAEEAEFGGSSFSDKGGLTQFKKATSGGMVLVMSLWDDYYANMLWLDSTYPTNETSSTPGAVRGSCSTSSGVPAQVESQSPNAKVTFSNIKFGPIGSTGNPSGGNPPGGNPPGTTTTRRPATTTGSSPGPTQSHYGQCGGIGYSGPTVCASGTTCQVLNPYYSQCL
notes: full length: catalytic domain, linker, CBM; secreted from T. reesei Tu-6 delta-ku70 (cDNA1 promoter); no tag stated; concentrated by 30 kDa ultrafiltration
With B1 the Km [3] was 1300 µM, the kcat [3] was 1.29 s⁻¹ and the kcat/Km [3] was 1030 M⁻¹ s⁻¹.

B2: C-CBH (Chaetomium thermophilum CBHI) (Thermochaetoides thermophila) (protein)
chain: QQACSLTAENHPSLTWKRCTSGGSCSTVNGAVTIDANWRWTHTVSGSTNCYTGNQWDTSLCTDGKSCAQTCCVDGADYSSTYGITTSGDSLNLKFVTKHQYGTNVGSRVYLMENDTKYQMFELLGNEFTFDVDVSNLGCGLNGALYFVSMDADGGMSKYSGNKAGAKYGTGYCDAQCPRDLKFINGEANVGNWTPSTNDANAGFGRYGSCCSEMDVWEANNMATAFTPHPCTTVGQSRCEADTCGGTYSSDRYAGVCDPDGCDFNAYRQGDKTFYGKGMTVDTNKKMTVVTQFHKNSAGVLSEIKRFYVQDGKIIANAESKIPGNPGNSITQEYCDAQKVAFSNTDDFNRKGGMAQMSKALAGPMVLVMSVWDDHYANMLWLDSTYPIDQAGAPGAERGACPTTSGVPAEIEAQVPNSNVIFSNIRFGPIGSTVPGLDGSNPGNPTTTVVPPASTSTSRPTSSTSSPVSTPTGQPGGCTTQKWGQCGGIGYTGCTNCVAGTTCTQLNPWYSQCL
notes: full length: catalytic domain, linker, CBM; secreted from T. reesei Tu-6 delta-ku70 (common signal peptide for all four constructs, cDNA1 promoter); no tag stated; concentrated by 30 kDa ultrafiltration
B2 gave a Km [4] of 1100 µM, a kcat [4] of 1.56 s⁻¹ and a kcat/Km [4] of 1480 M⁻¹ s⁻¹.
